These results are taken from patent US5747253.

This series has as its system c-Myc, P01106-1. Kind of series: competition. The conditions noted are these: 2'-OMe; 50 uM pool vs myc PS site; FIG. 5 labels this pool SEQ ID NO:33.

c-Myc, P01106-1, sequence (P01106 16-454): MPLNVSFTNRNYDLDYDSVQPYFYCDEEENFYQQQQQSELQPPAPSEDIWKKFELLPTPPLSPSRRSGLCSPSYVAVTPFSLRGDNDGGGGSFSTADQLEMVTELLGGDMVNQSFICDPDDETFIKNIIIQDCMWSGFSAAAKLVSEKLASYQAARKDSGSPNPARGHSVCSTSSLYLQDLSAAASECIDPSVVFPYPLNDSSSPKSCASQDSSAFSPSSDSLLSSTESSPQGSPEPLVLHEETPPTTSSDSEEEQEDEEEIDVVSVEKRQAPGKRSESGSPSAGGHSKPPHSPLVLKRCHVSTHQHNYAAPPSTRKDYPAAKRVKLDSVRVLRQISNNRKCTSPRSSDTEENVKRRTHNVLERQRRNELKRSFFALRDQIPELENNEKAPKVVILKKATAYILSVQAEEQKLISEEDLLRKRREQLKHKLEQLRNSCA

GCGNNNCNNNNNNCGC [2'-OMe pool X=C] had a binding signal of 50 % inhibition.
